From the FLAb antibody collection (doi:10.1101/2023.12.08.570889)
Substitutions are numbered along the chain they refer to.

B1: unnamed (protein)
chain 1: EVQLVQSGAEVKKPGESLRISCKGSGYSFSTYWISWVRQMPGKGLEWMGKIYPGDSYTNYSPSFQGQVTISADKSISTAYLQWSSLKASDTAMYYCTRGTGLFDYWGQGTLVTVSS
chain 2: SYELTQPPSVSVSPGQTASITCSGDNIGDQYAHWYQQKPGQSPVLVIYQDKNRPSGIPERFSGSNSGNTATLTISGTQAMDEADYYCATYTGFGSLAVFGGGTKLTVL
B2: unnamed (protein)
chain 1: B1 chain 1 with T31S, T97A, T100Y, L102V
chain 2: B1 chain 2
B3: unnamed (protein)
chain 1: B1 chain 1 with S28T, T31D, T97A, T100Y
chain 2: B1 chain 2
B4: unnamed (protein)
chain 1: B1 chain 1 with T97A, T100I, L102V
chain 2: B1 chain 2
B5: unnamed (protein)
chain 1: B1 chain 1 with T97A, T100H, L102V
chain 2: B1 chain 2
B6: unnamed (protein)
chain 1: B1 chain 1 with S28T, T31S, D55N, T97A, T100D, L102V
chain 2: B1 chain 2
B7: unnamed (protein)
chain 1: B1 chain 1 with T31N, T97A, T100Y
chain 2: B1 chain 2
B8: unnamed (protein)
chain 1: B1 chain 1 with T97A, T100W, L102I
chain 2: B1 chain 2
B9: unnamed (protein)
chain 1: B1 chain 1 with S28T, T31S, T97A, T100Y
chain 2: B1 chain 2
B10: unnamed (protein)
chain 1: B1 chain 1 with T97S, T100Y, L102I
chain 2: B1 chain 2
B11: unnamed (protein)
chain 1: B1 chain 1 with T31S, T97A
chain 2: B1 chain 2
B12: unnamed (protein)
chain 1: B1 chain 1 with L102I
chain 2: B1 chain 2
B13: unnamed (protein)
chain 1: B1 chain 1 with S28T, T31S, T100Y, L102I
chain 2: B1 chain 2
B14: unnamed (protein)
chain 1: B1 chain 1 with S28T, T31D, T97A, T100Y, L102I
chain 2: B1 chain 2
B15: unnamed (protein)
chain 1: B1 chain 1 with S28T, T31S, T100Y
chain 2: B1 chain 2
B16: unnamed (protein)
chain 1: B1 chain 1 with S28T, T31S, T97A, T100Y, L102I, F103L
chain 2: B1 chain 2
B17: unnamed (protein)
chain 1: B1 chain 1 with T97A, T100W
chain 2: B1 chain 2
B18: unnamed (protein)
chain 1: B1 chain 1 with S28T, T31N, T97A, T100Y, L102I
chain 2: B1 chain 2
B19: unnamed (protein)
chain 1: B1 chain 1 with S28T, T31N, T97A, T100Y
chain 2: B1 chain 2
B20: unnamed (protein)
chain 1: B1 chain 1 with T31S, T97A, T100Y
chain 2: B1 chain 2

Molecular target: TNFRSF9, Q07011
Assay: Kd (SPR)

Binder	Kd [nM]
B1	142
B2	228
B3	84.1
B4	33.4
B5	315
B6	32.9
B7	145
B8	45
B9	86.1
B10	39.7
B11	150
B12	92
B13	95.4
B14	120
B15	109
B16	59.4
B17	60.3
B18	86.4
B19	117
B20	51.1
